In the supplement of paper PMC10567573:
± gives the standard deviation.

Experiment: protein stability index of a GFP-peptide fusion (GPS, HEK-293T) (PSI 1-6); higher = more stable
[1] = treatment: DMSO, c terminus: a fixed tail appended
[2] = treatment: MLN4924 1 uM, 8 h, c terminus: a fixed tail appended
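Note: 24-mer peptide tiles fused after GFP, lentivirally expressed, FACS-sorted into six equal bins by GFP/DsRed ratio, decoded by Illumina sequencing, PSI is the read-weighted mean bin number.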

| Sequence | protein stability index [1] | protein stability index [2] | protein stability index (treatment: DMSO, c terminus: native) | protein stability index (treatment: MLN4924 1 uM, 8 h, c terminus: native) |
| --- | --- | --- | --- | --- |
| RWNPWSTEVPYATFTEHPMKYTSE [TPRG1] | 3 ± 0.6 | 2.74 ± 0.24 |  |  |
| DPGVQELEALIDTIQKQLKDHSCK [EFHC1] | 3.93 ± 0.28 | 3.97 ± 0.25 |  |  |
| LNEDTIQDVVQAADLLLLTDLKTL [GAN] | 3.03 ± 0.31 | 3.16 ± 0.44 |  |  |
| EPFGKERDAAIKKLATEAGVEVIV [CRY1] | 3.59 ± 0.22 | 3.48 ± 0.28 |  |  |
| LPDNYEIIDSSLEDITYVLKPTFT [USP39] | 2.87 ± 0.39 | 2.8 ± 0.47 |  |  |
| HILAAEQLSRDSTLGGKAFHITND [NSDHL] | 3.39 ± 0.1 | 3.49 ± 0.28 |  |  |
| WDLRFRIIHETAVGMNFLHCMAPP [RIPK4] | 2.89 ± 0.73 | 2.82 ± 0.83 |  |  |
| CVRRRYSDFEWLKNELERDSKIVV [SNX12] | 2.7 ± 0.17 | 2.62 ± 0.49 |  |  |
| YAADRNCMWSKKCSGVACLVKDNP [WASL] | 3.08 ± 0.95 | 2.49 ± 0.3 |  |  |
| VVPDVRSVVTTARMQVLKRQVQSL [SMARCE1] | 2.5 ± 0.14 | 2.85 ± 0.21 |  |  |
| PPVPCVPSVPCTPAPQVGTQIRTI [KRT36] | 4.46 ± 0.22 | 4.31 ± 0.2 |  |  |
| EQYDLATKRVRQLLDLDPEVECLK [GOLPH3] | 3.96 ± 0.28 | 3.97 ± 0.43 |  |  |
| DKPVTGPRNKTENGLTPKKKIQVN [ATF6] | 4.81 ± 0.31 | 4.63 ± 0.32 |  |  |
| QLGTLAGSKYYNVEAMYCYLRCIQ [SMG5] | 2.68 ± 0.29 | 2.3 ± 0.41 |  |  |
| RLPCSFVTLALLGSYTVQSELGDY [EPB41L3] | 2.91 ± 0.56 | 2.48 ± 0.35 |  |  |
| FHLSLFQGWMNLLNMAKKSVDIVS [PLD5] | 2.99 ± 1.5 | 1.73 ± 0.94 |  |  |
| VPQIFKYGETCFPKGRFERKRNPS [ZNF24] | 3.8 ± 0.76 | 3.93 ± 1.1 |  |  |
| QPPLSATVTLTVAVADSIPQVLAD [PCDHGA10] | 2.56 ± 0.24 | 2.7 ± 0.36 |  |  |
| KRLCGLKVEVDMEKIAAEIAQAEE [SMARCE1] | 2.25 ± 0.12 | 3.63 ± 0.37 |  |  |
| SSQPQDNSQVHRETEDVDYGETDF [TMEM40] | 5.58 ± 0.26 | 5.64 ± 0.3 |  |  |
| DMRDPTYRPLKQELQGLDYCKPTR [SPSB1] | 3.76 ± 0.59 | 4.04 ± 0.55 |  |  |
| VNGSWYIQDLCEMLGKYGSSLEFT [CASP6] | 2.95 ± 0.65 | 2.67 ± 0.55 |  |  |

| Sequence | protein stability index [1] | protein stability index [2] | protein stability index (treatment: DMSO, c terminus: native) | protein stability index (treatment: MLN4924 1 uM, 8 h, c terminus: native) |
| --- | --- | --- | --- | --- |
| RQIIKLNRRLQLLEEENKERAKRE [MFF] | 3.81 ± 0.36 | 4.18 ± 0.23 |  |  |
| TQHFVQENYLEYRQVPGSDPACYE [MAGEA3] | 4.26 ± 0.081 | 4.34 ± 0.12 |  |  |
| TVEPGKLDVGATEGQDLQHISNQK [DRICH1] | 5.43 ± 0.23 | 5.4 ± 0.4 |  |  |
| ICQGDGSSCTHVTGNYRKGNAHLG [ADAMTSL2] | 3.74 ± 0.33 | 3.92 ± 0.26 |  |  |
| GKGFRHSSSLAQHQRKHAGEKPFE [ZNF8] | 4.82 ± 0.21 | 4.69 ± 0.28 |  |  |
| YRTWNVVVHDWLYSYVYQDGLRLL [SOAT2] | 3.02 ± 0.41 | 2.82 ± 0.84 |  |  |
| PASFPTWGCDLGVVTRVVTGVYPR [BRF1] | 2.37 ± 0.16 | 2.39 ± 0.3 |  |  |
| LEEEEEEEEEAEDEEVVATAGDRL [IRX6] | 5.71 ± 0.27 | 5.46 ± 0.32 |  |  |
| EKEIEEATKKLGFKHPVIGVHVRR [FUT8] | 3.99 ± 0.29 | 3.9 ± 0.51 |  |  |
| DQLTQIMRTGQNTWESKNILAVSF [PCMTD1] | 2.21 ± 0.22 | 1.92 ± 0.36 |  |  |
| SLDTLLEAVESRGGVPGGCVLVPR [SMAD6] | 3.23 ± 0.17 | 3.23 ± 0.25 |  |  |
| RSRIEEQSQLICILKRRSDEALER [CCDC89] | 3.86 ± 0.12 | 3.76 ± 0.23 |  |  |
| LLYNRSNNKYSYTSNSDDNMLKNI [KCTD10] | 2.52 ± 0.28 | 2.74 ± 0.6 |  |  |
| AAVPDEIPPLEGDEDASRMEEVD [HSP90AB1] |  |  | 5.62 ± 0.27 | 5.68 ± 0.21 |
| PRHPIRALVGDEVELPCRISPGKN [MOG] | 4.62 ± 0.17 | 4.72 ± 0.21 |  |  |
| KTCSRVDHCAQQDHGCEQLCLNTE [MATN2] | 4.77 ± 0.19 | 4.77 ± 0.21 |  |  |
| QGKLIKRQRLAKNDRGDHYHWKDL [EFHC1] | 3.36 ± 0.48 | 3.71 ± 0.31 |  |  |
| SFLFLGCSHSFLLAVMGYDRYIAI [OR10K2] | 3.14 ± 0.21 | 2.83 ± 0.59 |  |  |
| NPKLPNISLDVLQPSFPEILLESH [POMT2] | 3.52 ± 0.21 | 3.84 ± 0.34 |  |  |
| YLLQFARKPVEAESVEGVVRILLE [INTS4] | 2.19 ± 0.24 | 2.27 ± 0.25 |  |  |
| NVEMDAAPGVDLSRILNEMRDQYE [KRT16] | 4.34 ± 0.18 | 4.46 ± 0.37 |  |  |
| IDKEIELHRILHHKHVVQFYHYFE [PLK2] | 2.12 ± 0.29 | 2.18 ± 0.38 |  |  |

| Sequence | protein stability index [1] | protein stability index [2] | protein stability index (treatment: DMSO, c terminus: native) | protein stability index (treatment: MLN4924 1 uM, 8 h, c terminus: native) |
| --- | --- | --- | --- | --- |
| TNKFYMLDSRSTDRVLQWERIDCQ [KLHDC2] | 2.43 ± 0.36 | 2.8 ± 0.58 |  |  |
| YTFLYLVCISTKTQCSEEDQCKIN [FEM1B] | 2.65 ± 0.51 | 2.33 ± 0.2 |  |  |
| IPQQQGMRPPMPPHGQYGGHHQGM [ZNF207] | 3.71 ± 0.24 | 3.88 ± 0.11 |  |  |
| NATAPRSPSHSPEHRRTARRTPPG [ELOA2] | 5 ± 0.15 | 5.2 ± 0.36 |  |  |
| VARILIDLCSDVNVCSLLAQTPLH [RIPK4] | 2.65 ± 0.26 | 2.57 ± 0.4 |  |  |
| RQGNPSWKKQQKCDECGKIFSQSS [ZNF396] | 3.57 ± 0.33 | 3.92 ± 0.11 |  |  |
| STGYCWCVLVDTGRPIPGTSTRYE [SMOC2] | 2.64 ± 1.8 | 2.12 ± 0.32 |  |  |
| VGGQDTGATWRTSGLLEELNAEAG [C18orf25] | 4.57 ± 0.2 | 4.59 ± 0.34 |  |  |
| ELARIVLLRHGMDRLWRPSKVLSL [RAB40B] | 2.54 ± 0.67 | 2.43 ± 0.75 |  |  |
| THEEGSYLFWEFATDNYDIGFGVY [ACBD3] | 2.65 ± 0.48 | 2.15 ± 0.32 |  |  |
| PSSLSSSEGSSSSSSSSSSSSSSA [NFE2L1] | 5.51 ± 0.22 | 5.47 ± 0.12 |  |  |
| TEFTLGDDKHYGGFTNKQLQSGQE [PTPRD] | 4.91 ± 0.2 | 4.77 ± 0.13 |  |  |
| PSFHPHAGGGSQENLDNDTETDSL [DVL3] | 5.58 ± 0.31 | 5.5 ± 0.29 |  |  |
| TSPAKDSLSFEDFLDLLSVFSDTA [CIB1] | 2.28 ± 0.1 | 2.45 ± 0.27 |  |  |
| MASTTTCTRFTDEYQLFEELGKGA [CAMK2D] | 3.74 ± 0.38 | 3.64 ± 0.29 |  |  |
| QSLLQPKSSSVDSELTSLCQSVLE [SMG5] | 3.88 ± 0.26 | 3.94 ± 0.21 |  |  |
| TGIIDSLTISPKAARVGLLQYSTQ [MATN2] | 2.72 ± 1.3 | 2.43 ± 0.23 |  |  |
| LGAQTQFDVKNDRYIVNGSHEANK [EIF5] | 4.8 ± 0.3 | 4.77 ± 0.2 |  |  |
| DVADDFENYHKLRRSSSKCIHDHH [NETO1] | 3.85 ± 0.15 | 4.15 ± 0.11 |  |  |
| MAAKSQPNIPKAKSLDGVTNDRTA [DHCR7] | 5 ± 0.15 | 5.04 ± 0.16 |  |  |
| VKFCLLGALLAPIRVLLAFIVLFL [LPCAT4] | 2.15 ± 0.29 | 1.86 ± 0.2 |  |  |
